Values quoted from earlier work as cited in article PMC9360543.
pKd: −log10 of the molar value.

Assays:
[1] = target: Integrin αvβ5 (Homo sapiens) (UniProt P06756); experiment: solid-phase ELISA-based binding assay
GRP78 (Homo sapiens) = GRP78 (Homo sapiens) (UniProt P11021)
Chain of UniProt P11021 (P11021 19-654): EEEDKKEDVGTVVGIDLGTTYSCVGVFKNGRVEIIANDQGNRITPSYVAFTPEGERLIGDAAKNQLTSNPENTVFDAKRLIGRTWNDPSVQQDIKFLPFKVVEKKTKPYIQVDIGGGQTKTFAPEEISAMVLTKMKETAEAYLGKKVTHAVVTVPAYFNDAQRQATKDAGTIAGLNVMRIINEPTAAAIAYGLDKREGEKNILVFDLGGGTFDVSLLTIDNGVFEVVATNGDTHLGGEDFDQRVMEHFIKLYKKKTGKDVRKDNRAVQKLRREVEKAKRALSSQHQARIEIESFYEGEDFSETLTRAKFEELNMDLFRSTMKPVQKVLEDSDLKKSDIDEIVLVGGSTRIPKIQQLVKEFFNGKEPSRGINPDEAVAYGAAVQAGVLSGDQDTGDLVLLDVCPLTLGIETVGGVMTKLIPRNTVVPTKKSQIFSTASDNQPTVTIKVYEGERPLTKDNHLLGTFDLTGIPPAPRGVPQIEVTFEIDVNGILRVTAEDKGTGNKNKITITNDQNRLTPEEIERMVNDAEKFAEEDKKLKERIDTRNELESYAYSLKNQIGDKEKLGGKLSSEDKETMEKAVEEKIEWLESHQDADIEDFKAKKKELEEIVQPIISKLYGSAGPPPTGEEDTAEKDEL

Chain of UniProt P06756 (P06756 31-992, chain 1 of 2): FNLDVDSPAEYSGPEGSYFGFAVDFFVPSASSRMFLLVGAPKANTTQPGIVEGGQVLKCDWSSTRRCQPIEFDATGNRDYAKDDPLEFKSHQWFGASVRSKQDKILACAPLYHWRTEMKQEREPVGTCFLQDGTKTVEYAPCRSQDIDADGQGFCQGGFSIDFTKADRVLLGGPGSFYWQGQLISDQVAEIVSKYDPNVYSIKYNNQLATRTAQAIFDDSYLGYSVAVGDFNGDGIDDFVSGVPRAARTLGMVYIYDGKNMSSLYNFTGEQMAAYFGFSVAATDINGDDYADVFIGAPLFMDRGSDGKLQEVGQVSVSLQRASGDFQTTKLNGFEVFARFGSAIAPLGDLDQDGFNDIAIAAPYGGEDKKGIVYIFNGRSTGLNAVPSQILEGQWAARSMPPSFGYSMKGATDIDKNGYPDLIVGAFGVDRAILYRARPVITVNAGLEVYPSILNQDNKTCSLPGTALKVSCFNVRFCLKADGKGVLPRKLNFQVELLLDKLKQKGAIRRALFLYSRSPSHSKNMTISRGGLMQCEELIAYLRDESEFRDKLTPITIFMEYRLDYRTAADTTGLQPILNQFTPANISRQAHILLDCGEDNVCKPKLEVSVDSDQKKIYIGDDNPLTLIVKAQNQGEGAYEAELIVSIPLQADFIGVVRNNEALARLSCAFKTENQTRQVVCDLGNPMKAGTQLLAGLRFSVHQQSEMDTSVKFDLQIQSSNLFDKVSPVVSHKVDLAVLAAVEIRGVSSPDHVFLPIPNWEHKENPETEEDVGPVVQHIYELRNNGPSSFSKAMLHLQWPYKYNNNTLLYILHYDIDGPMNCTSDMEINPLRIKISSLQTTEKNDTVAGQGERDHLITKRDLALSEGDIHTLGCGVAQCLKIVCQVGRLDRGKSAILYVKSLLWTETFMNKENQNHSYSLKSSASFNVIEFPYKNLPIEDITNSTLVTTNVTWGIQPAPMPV
Chain of UniProt P06756 (P18084 24-719, chain 2 of 2, further chain): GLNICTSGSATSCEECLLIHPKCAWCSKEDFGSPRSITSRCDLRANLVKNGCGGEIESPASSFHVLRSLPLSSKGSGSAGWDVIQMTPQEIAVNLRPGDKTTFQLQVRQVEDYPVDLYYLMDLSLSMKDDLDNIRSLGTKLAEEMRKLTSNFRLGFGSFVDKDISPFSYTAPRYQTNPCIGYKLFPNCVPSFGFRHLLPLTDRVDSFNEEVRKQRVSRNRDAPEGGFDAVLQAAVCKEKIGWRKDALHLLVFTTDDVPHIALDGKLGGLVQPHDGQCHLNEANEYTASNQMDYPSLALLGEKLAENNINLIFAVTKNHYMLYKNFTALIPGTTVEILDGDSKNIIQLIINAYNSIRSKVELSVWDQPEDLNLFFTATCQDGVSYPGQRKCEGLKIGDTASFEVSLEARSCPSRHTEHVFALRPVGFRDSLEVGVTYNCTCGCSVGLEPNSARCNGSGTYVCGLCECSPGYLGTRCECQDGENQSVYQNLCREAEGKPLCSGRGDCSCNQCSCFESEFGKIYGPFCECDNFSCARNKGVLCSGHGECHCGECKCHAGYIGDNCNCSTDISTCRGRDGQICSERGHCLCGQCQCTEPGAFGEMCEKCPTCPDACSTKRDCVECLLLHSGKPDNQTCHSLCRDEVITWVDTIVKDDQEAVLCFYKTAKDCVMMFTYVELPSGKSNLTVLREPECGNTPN

Isthmin-1 (from UniProt B1AKI9)
pKd [1]: 4.40 | pKd (GRP78 (Homo sapiens)): 8.07
